B1: s10 (RO6D8-s10) 抗ROR1单克隆抗体 (antibody, V domains shown)
VH: QVQLVQSGAEVKKPGASVKVSCKASGYTFTNYYMHWVRQAPGQGLEWMGIINPSGGSTSYAQKFQGRVTMTRDTSTSTVYMELSSLRSEDTAVYYCARSSRSSYYLWVLDLWGQGTTVTVSS
VL: AIQMTQSPSSLSASVGDRVTITCRASQGVSTEIAWYQQKPGKAPKLLIYAASSLQSGVPSRFSGSGSGTDFTLTISSLQPEDFATYYCQQFNSYPITFGQGTRLEIK
B2: jlv1011 (RO6D8-jlv1011) 抗ROR1单克隆抗体 (antibody, V domains shown)
VH: QVQLVQSGAEVKKPGASVKVSCKASGYTFTSKYYHWVRQAPGQGLEWMGIINPTSGSTSYAQKFQGRVTMTRDTSTSTVYMELSSLRSEDTAVYYCARDSSRYSGWYFDLWGQGTTVTVSS
VL: AIQLTQSPSSLSASVGDRVTITCRASQGVSTEIAWYQQKPGKAPKLLIYAASSLQSGVPSRFSGSGSGTDFTLTISSLQPEDFATYYCQQYYGYPIAFGQGTRLEIK

Biological target: 重组小鼠ROR1 IgG2-Fc融合蛋白 (R&D系统公司, 目录号9910-RO-050) (mouse, UniProt Q9Z139 30-403)
Sequence (Q9Z139 30-403 limits assumed): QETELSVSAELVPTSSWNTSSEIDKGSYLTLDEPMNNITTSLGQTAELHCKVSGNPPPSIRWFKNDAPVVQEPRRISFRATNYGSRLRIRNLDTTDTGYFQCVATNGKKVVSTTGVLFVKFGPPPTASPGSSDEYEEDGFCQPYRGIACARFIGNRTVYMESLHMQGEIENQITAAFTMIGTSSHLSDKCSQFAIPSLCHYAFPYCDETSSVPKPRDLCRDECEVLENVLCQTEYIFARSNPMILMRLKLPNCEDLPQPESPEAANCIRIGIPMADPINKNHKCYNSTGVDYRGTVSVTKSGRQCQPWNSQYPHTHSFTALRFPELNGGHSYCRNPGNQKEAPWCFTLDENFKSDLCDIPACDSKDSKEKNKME
Experiment: ELISA, coated mouse ROR1 IgG2-Fc, antibody dilutions, anti-human IgG Fc-HRP

| Binder | binding result |
| --- | --- |
| B1 | binds |
| B2 | binds |

From patent publication CN117460833A (dated 2024)
